From US20050014931A1 (ABGENIX, published 2005)

Molecular target: BSA (UniProt P02769 25-607)
Assay: ELISA screen of hybridoma supernatants

BSA, sequence (P02769 25-607 limits assumed): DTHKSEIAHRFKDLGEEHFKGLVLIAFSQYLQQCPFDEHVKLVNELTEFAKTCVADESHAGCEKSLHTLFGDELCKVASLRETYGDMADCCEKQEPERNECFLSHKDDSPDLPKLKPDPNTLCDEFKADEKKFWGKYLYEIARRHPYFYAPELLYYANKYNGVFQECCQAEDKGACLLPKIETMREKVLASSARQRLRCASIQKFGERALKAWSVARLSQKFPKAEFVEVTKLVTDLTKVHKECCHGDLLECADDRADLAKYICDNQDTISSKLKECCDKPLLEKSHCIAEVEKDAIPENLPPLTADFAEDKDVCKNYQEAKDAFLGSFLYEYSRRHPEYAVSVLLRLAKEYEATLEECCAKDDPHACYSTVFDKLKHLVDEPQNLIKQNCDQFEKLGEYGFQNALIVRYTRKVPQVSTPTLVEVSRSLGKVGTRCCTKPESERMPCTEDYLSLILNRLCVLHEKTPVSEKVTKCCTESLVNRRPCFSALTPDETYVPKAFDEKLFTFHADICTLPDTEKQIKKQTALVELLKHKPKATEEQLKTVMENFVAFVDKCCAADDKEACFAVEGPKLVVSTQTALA

B1: Mab 1A2 (antibody, V domains shown)
VH: not shown
VL: DIELTQSPDFQSVTPKEKVTITCRASQSIGSSLHWYQQKPDQSPKLLIKYASQSFSGVPSRFSGSGSGTDFTLTINSLEAEDAATYYCHQSSSLPRTFGQGTKVEIKR
Does B1 bind?
Result: no binding

B2: Mab 1F10/7C5 (antibody, V domains shown)
VH: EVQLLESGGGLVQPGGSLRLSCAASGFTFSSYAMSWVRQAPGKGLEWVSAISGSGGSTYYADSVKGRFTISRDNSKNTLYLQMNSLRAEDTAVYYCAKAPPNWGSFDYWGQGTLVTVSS
VL: DIELTQSPLSLPVTLGQPASISCRSSQSLVYSDGNTYLNWFQQRPGQSPRRLIYKVSNWDSGVPDRFSGSGSGTDFTLKISRVEAEDVGVYYCMQGTHWPRTFGQGTKVEIKR
notes: also called Mab 7C5
Does B2 bind?
Result: no binding
